Literature values as cited in publication PMC10499909.
pKd: −log10 of the molar value.

Target: lactoferrin (species not stated, cited Kd) (UniProt P02788)
Conditions: PBS pH 6.8, 37 °C, 30 min in dark; CDs-aptamer 0.05 mg/mL with graphene oxide nanosheets

Sequence of lactoferrin (species not stated, cited Kd) (P02788 20-710): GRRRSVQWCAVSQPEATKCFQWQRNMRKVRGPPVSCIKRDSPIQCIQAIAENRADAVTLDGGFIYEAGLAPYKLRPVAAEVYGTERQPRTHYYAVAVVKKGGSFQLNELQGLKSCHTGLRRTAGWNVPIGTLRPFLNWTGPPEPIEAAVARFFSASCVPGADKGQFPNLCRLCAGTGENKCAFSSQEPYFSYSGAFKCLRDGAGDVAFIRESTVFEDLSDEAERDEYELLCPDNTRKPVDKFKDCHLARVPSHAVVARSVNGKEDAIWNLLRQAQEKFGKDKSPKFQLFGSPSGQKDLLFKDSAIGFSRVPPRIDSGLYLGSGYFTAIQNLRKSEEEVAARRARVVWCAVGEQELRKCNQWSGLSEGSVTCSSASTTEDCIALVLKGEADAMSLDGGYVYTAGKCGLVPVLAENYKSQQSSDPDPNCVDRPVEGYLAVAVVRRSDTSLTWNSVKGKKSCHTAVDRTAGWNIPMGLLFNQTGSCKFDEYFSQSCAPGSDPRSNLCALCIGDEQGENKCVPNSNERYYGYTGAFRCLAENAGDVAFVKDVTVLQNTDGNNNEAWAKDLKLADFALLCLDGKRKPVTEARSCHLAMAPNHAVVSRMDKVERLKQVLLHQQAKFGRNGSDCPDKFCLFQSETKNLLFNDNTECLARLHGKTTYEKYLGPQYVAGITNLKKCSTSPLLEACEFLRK

AGGCAGGACACCGTAACCGGTGCATCTATGGCTACTAGCTCTTCCTGCCT [LF aptamer]
pKd: 8.30
